Assay results from patent publication US20240382604A1 (GUANGZHOU MEDICAL UNIVERSITY, published 2024).
No end group written: not given here.

Molecular target: papain-like protease (PLpro), enzyme used in the in vitro enzyme assay (SARS-CoV-2, UniProt P0DTD1 1564-1878, limits assumed)
Assay: cell-based or functional assay

SRLRGG-GRL0617 [peptide-drug conjugate RG-17 (polypeptide SRLRGG linked with GRL0617)]
IC50, inhibition of PLpro activity in the in vitro enzyme assay (hydrolysis of substrate RLRGG-AMC, AMC fluorescence): 1400 nM
